1 protein from US6676943 can be followed below.

The series concerns the target human complement protein C3, P01024.

Sequence of human complement protein C3, P01024 (P01024 whole entry, looked up): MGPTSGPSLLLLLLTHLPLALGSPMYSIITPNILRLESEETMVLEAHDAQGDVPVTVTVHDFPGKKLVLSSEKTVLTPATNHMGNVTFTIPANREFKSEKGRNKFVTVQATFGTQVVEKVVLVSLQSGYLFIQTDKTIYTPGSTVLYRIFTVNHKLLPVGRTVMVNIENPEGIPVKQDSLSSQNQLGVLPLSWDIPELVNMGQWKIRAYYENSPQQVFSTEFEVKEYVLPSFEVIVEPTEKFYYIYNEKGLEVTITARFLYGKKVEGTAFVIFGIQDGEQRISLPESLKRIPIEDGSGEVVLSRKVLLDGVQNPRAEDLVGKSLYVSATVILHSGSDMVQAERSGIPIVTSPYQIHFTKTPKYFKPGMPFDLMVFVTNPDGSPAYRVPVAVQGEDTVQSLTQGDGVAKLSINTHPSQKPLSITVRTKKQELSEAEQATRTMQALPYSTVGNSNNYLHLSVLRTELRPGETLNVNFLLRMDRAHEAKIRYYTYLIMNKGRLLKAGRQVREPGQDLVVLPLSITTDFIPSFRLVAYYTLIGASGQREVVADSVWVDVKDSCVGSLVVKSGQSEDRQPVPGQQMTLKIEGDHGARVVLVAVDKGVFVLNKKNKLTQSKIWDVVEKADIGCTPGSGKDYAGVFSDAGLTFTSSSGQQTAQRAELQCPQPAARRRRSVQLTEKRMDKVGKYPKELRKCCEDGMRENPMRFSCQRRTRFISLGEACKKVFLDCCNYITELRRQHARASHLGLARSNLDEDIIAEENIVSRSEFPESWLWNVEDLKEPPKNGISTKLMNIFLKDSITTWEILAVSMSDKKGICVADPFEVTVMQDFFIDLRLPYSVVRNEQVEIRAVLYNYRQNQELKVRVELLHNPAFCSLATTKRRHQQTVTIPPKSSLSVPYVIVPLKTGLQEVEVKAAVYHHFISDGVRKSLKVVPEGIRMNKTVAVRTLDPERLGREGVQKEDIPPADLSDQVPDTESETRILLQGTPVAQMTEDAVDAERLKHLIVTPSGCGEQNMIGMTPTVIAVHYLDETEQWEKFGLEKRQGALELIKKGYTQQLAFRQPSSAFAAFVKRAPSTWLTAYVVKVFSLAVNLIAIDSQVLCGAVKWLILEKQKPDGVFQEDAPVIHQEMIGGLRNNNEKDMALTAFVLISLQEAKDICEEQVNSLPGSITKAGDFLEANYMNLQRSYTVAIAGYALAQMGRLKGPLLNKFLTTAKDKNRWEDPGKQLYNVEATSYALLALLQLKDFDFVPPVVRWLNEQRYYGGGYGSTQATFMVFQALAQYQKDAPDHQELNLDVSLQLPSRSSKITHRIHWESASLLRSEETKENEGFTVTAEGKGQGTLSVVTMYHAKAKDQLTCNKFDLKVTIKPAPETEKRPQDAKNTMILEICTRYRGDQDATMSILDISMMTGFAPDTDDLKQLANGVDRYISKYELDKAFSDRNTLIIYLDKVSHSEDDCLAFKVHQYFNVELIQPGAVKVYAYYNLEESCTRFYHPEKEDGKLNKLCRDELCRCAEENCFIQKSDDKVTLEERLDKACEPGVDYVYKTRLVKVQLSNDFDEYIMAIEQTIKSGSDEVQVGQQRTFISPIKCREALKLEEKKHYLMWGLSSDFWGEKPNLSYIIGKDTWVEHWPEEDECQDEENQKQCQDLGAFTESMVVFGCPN

B1: His-tagged CppA protein (recombinant C3-degrading proteinase of Streptococcus pneumoniae encoded by ORF3 / cppA) (protein)
chain: MNVNQIVRIIPTLKANNRKLNETFYIETLGMKALLEESAFLSLGDQTGLEKLVLEEAPSMRTRKVEGRKKLARLIVKVENPLEIEGILSKTDSIHRLYKGQNGYAFEIFSPEDDLILIHAEDDIASLVEVGEKPEFQTDLASISLSKFEISMELHLPTDIESFLESSEIGASLDFIPAQGQDLTVDNTVTWDLSMLKFLVNELDIASLRQKFESTEYFIPKSEKFFLGKDRNNVELWFEEV
For the protein B1, the “C3 degradation (4 hrs at 37 C in PBS; reducing SDS-PAGE and Western Blot with polyclonal anti-C3)” value is “the protein degraded human C3 protein. Both α and β chains of C3 molecules were susceptible to degradation”; the “C3 degradation (4 hrs at 37 C in PBS; reducing SDS-PAGE and Western immunoblotting with polyclonal anti-C3)” value is recorded as “the samples that contained the expressed protein degraded C3 molecules ... the α chain was almost completely degraded while the β chain was partially degraded in the ORF3 samples”.
